Test results as given in patent US20060251650A1 (CHILDREN S MEDICAL CENTER, published 2006).

Tests used:
[1] = molecular target: T1, Human VEGF165R/NP-1 (neuropilin-1) (human, UniProt O14786 22-923); assay: 125I-VEGF121 binding and chemical cross-linking to PAE/NP-1 cells, SDS-PAGE and autoradiography, 1 µg/ml heparin
T1 construct: Expressed from the human cDNA in PAE cells (PAE/NP-1, PAE/KDR/NP-1) and COS-7 cells; also called clone A2
From the text: The cells were lysed and proteins were resolved by 6% SDS-PAGE.

[2] = molecular target: T1, Human VEGF165R/NP-1 (neuropilin-1); assay: cell-based or functional assay
[3] = molecular target: T2, Rat neuropilin-1 on AT3.1 Dunning rat prostate carcinoma cells (rat, UniProt Q9QWJ9 22-922); assay: 125I-VEGF165 cross-linking to AT3.1 rat prostate carcinoma cells
T2 construct: whole, on cells; also called VEGF165R/NP-1 (AT3.1 cells)

[4] = molecular target: T1, Human VEGF165R/NP-1 (neuropilin-1); assay: Scatchard analysis (LIGAND program) of 125I-VEGF165 binding to PAE/NP-1 cells
[5] = molecular target: T3, Human NP-2 (neuropilin-2) (human, UniProt O60462 21-931); assay: expression cloning: COS-7 cells transfected with single cDNA clones, screened for 125I-VEGF165 binding; seven positive clones, of which this one is NP-2
T3 construct: The open reading frame has 931 amino acids
T3 sequence: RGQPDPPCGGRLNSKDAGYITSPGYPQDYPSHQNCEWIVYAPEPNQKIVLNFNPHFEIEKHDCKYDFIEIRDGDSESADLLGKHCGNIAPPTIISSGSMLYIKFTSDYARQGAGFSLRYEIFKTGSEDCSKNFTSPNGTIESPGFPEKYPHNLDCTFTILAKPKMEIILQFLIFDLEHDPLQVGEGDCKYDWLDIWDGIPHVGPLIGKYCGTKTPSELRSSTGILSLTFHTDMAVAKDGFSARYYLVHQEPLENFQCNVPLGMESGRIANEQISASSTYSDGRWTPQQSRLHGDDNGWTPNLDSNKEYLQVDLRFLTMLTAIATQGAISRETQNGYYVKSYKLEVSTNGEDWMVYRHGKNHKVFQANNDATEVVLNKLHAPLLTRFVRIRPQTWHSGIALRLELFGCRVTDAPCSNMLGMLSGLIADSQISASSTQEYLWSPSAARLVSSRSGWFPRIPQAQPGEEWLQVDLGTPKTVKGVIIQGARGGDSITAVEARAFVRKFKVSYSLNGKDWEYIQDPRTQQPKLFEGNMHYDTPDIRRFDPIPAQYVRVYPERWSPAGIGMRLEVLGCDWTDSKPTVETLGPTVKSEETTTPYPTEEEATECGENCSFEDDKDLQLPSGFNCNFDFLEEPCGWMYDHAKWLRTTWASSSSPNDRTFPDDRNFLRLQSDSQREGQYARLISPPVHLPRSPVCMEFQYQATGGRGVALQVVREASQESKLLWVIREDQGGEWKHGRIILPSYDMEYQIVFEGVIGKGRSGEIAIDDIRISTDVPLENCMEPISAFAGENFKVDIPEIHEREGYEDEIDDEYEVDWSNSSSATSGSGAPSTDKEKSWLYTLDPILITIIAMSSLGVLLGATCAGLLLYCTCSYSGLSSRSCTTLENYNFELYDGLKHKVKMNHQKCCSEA

[6] = molecular target: T4, KDR (UniProt P35968 20-1356, limits assumed); assay: 125I-collapsin-1 binding to PAE/KDR cells
T4 construct: whole, on cells; also called KDR/Flk-1
T4 sequence (P35968 20-1356 limits assumed): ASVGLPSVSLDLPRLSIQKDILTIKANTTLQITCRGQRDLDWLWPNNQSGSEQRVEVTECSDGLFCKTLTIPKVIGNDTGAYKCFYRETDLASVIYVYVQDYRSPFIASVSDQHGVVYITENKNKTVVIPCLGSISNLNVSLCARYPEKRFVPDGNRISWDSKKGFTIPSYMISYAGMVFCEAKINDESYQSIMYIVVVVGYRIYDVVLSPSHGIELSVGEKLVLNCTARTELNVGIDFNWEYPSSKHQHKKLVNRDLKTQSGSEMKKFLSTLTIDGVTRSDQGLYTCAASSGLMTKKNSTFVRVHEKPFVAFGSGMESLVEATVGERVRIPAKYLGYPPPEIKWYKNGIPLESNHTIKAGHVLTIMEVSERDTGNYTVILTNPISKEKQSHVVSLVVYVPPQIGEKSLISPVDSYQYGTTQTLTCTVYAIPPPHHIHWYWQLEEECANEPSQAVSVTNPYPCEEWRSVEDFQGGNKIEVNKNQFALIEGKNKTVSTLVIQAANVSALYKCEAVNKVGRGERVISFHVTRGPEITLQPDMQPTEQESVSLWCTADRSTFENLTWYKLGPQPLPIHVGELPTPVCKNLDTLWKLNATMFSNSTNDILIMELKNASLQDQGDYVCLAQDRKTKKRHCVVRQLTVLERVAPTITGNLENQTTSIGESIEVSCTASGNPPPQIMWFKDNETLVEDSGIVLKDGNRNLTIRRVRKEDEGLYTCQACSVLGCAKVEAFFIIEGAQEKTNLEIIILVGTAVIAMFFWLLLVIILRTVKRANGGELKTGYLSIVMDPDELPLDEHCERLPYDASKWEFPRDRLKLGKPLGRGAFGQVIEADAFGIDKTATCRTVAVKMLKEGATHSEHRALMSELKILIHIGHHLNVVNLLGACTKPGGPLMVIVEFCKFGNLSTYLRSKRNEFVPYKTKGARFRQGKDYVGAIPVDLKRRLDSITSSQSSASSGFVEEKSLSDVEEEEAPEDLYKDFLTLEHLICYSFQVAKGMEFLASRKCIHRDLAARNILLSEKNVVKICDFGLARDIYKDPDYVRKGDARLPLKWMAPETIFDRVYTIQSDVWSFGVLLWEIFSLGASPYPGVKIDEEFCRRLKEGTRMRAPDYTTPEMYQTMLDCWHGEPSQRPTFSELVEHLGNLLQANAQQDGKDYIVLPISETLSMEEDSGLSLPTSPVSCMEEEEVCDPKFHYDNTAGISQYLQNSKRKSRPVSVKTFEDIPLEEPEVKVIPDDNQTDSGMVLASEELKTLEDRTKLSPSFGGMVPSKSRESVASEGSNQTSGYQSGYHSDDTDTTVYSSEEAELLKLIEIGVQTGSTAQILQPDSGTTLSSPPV

B1: Human recombinant VEGF121 (ligand, UniProt P15692-9 27-147, looked up)
chain: APMAEGGGQNHHEVVKFMDVYQRSYCHPIETLVDIFQEYPDEIEYIFKPSCVPLMRCGGCCNDEGLECVPTEESNITMQIMRIKPHQGQHIGEMSFLQHNKCECRPKKDRARQEKCDKPRR
modifications: radio-iodinated (125I) using IODO-BEADS in the cross-linking experiments
notes: mature
B1: no binding (tested: 10 ng/ml) [1].

B2: Human recombinant VEGF165 (ligand, UniProt P15692-4 27-191, looked up)
chain: APMAEGGGQNHHEVVKFMDVYQRSYCHPIETLVDIFQEYPDEIEYIFKPSCVPLMRCGGCCNDEGLECVPTEESNITMQIMRIKPHQGQHIGEMSFLQHNKCECRPKKDRARQENPCGPCSERRKHLFVQDPQTCKCSCKNTDSRCKARQLELNERTCRCDKPRR
modifications: radio-iodinated (125I) using IODO-BEADS in the binding and cross-linking experiments
notes: mature
B2 was tested, and the “stimulation of 231 breast carcinoma cell motility, Boyden chamber, VEGF165 50 ng/ml” value [2] was 2 fold, the binding result [3] was “binds” and the Kd [4] was roughly 320 pM. B2: binds [5].

B3: Recombinant chick collapsin-1 (semaphorin III) (ligand, UniProt Q90607 23-772, looked up)
chain: QHVKNNVPRLKLSYKEMLESNNIVNFNGLANSSSYHTFLLDEERSRLYVGAKDHIFSFNLVNIKEYQKIVWPVSHSRRDECKWAGKDILRECANFIKVLKTYNQTHLYACGTGAFHPMCTYIEVGSHPEDNIFRMEDSHFENGRGKSPYDPKLLTASLLVDGELYSGTAADFMGRDFAIFRTLGHHHPIRTEQHDSRWLNDPRFISAHLIPESDNPEDDKIYFFFRENAIDGEHTGKATHARIGQICKNDFGGHRSLVNKWTTFLKARLICSVPGPNGIDTHFDELQDVFLMNSKDPKNPIVYGVFTTSSNIFKGSAVCMYSMTDVRRVFLGPYAHRDGPNYQWVPYQGRVPYPRPGTCPSKTFGGFDSTKDLPDEVITFARSHPAMYNPVFPINSRPIMIKTDVDYQFTQIVVDRVDAEDGQYDVMFIGTDIGTVLKVVSIPKETWHELEEVLLEEMTVFREPTVISAMKISTKQQQLYIGSATGVSQLPLHRCDVYGKACAECCLARDPYCAWDGSSCSRYFPTAKRRTRRQDIRNGDPLTHCSDLQHHDNPSGQTLEEKIIYGVENSSTFLECSPKSQRAIVYWQFQKQNDDHKVEIKVDDRMIRTEQGLLLRSLQRRDSGIYFCHAVEHGFIQTLLKVTLEVIDTDHLEELLHKEEDADASKTKDATNSMTPSQKIWYRDFMQLINHPNLNTMDEFCEQVWKRDRKQRRQRPANAQVNTNKWKHLQENKKGRNRRTHEFERAPRSV
modifications: 125I-labelled in the binding studies
B3: no binding [6].
